Test results taken from the DeepSol protein solubility set.

Assay: soluble on expression in E. coli; label from the status in PepcDB or PDB records
In the case of “MGSDKIHHHHHHMYNYPFENFDFIDFWDDDEYAMNEYIGAPPTEEMIEETERELGYKLPESYIWLMKQHNGGIPFNVCFPCDEPTSWADDHVAITGIMGVDKDKIYSLCGQLGSRFMIEEWGYPDIGVAICDCPSVGHDMIFLDYRECGPQGEPKVVHVDQEDDYYVTFLADNFEEFIRGLVNEEVFDTSEEDERMELEKVRNAAFSPLLSDLCAKCDHPVDTERWIRKISEEIVTDKGFFALHADERSYLLYDIQLWLYTNVYPDTTEEDYLSAYKKIIALDGEFSTGGYASDFVTDWLTRRKESGMVTCNDGILSMAAGTKEALLANRELISNKEQ”, the “soluble on expression in E. coli” value is reported as “not soluble”. In the case of “MGSDKIHHHHHHMYQQVIDFIEHQKKIGALHPGDKLPSLRKLSRQFDISVPTVKQAYIELERQGQVCAKPQSGYYLQAMQARTLKPRPAKWAQCDPVEVQGRSMIEQVHAAVHLPNTVALGISNPIQAHPPDKALARLMRSVLSKVSEKAVSYGPVTGDAKLRMQLAFRYQDQGVETNPDDIVITNGAQEALSIALQCVAKRGDIIAIESPCFFGMIELIETLGMKALEVYTCTEDGVCVEDLAEAINQHDITACLFSTAINNPLGSMKTDEQRQAMVSLLEQHDIPLIEDEVYSEIYFTDNKPKPAQLYSEKGLVMTCSSFSKTAAPGYRIGWLLPGKFEEQAKRIKRAQSASTPMLQQWTLNEYLLSGDYDRHLCVLRKTLAYNCERMRALIAEHFPPEVCISKPLGGSVLWLRCQSHVKTGEFFQQALTQGVSFAPGAIFSPSGKYQNYMRVSYGVQWGEDVETAVKVLGQLVYEYTSKQKTAQLMEKQ”, the “soluble on expression in E. coli” value is reported as “not soluble”. For “MGSDKIHHHHHHMYRLSQYETPLFTALVEHSKRNPIQFHIPGHKKGQGMDPEFREFIGHNALAIDLINIAPLDDLHHPKGMIKEAQDLAAAAFGADHTFFSIQGTSGAIMTMVMSVCGPGDKILVPRNVHKSVMSAIIFSGAKPIFMHPEIDPKLGISHGITIQSVKKALEEHSDAKGLLVINPTYFGFAADLEQIVQLAHSYDIPVLVDEAHGVHIHFHDELPMSAMQAGADMAATSVHKLGGSLTQSSILNVKEGLVNVKHVQSIISMLTTTSTSYILLASLDVARKRLATEGTALIEQTIQLAEQVRDAINDIEHLYCPGKEMLGTDATFNYDPTKIIVSVKDLGITGHQAEVWLREQYNIEVELSDLYNILCLVTFGDTESETNTLIAALQDLSATFKNKADKGVQVQVEIPEIPVLALSPRDAFYSETEVIPFENAAGRIIADFVMVYPPGIPIFTPGEIITQDNLEYIRKNLEAGLPVQGPEDMTLQTLRVIKEYKPIS”, the “soluble on expression in E. coli” value was “not soluble”. In the case of “MGSDKIHHHHHHMYSSAHSGSNESNLIAFPMAATSKTALLVQVDPFQSEVWSTALASQSITVIKEGADVDLSNMLGQMASAGLTLPDLIIVDMATEGMNPFAFCRFCREQHPSVKVLLTNSTQTQIAESEQRWAMSQGAQDLLPAFQTDSLLTDLLTALGRTSGVLGLPNLDQQALIQILPKLLEPKAEATETVALPAPSVAEPSVPPAPKAQRTYRGRPY”, the “soluble on expression in E. coli” value is reported as “not soluble”. In the case of “MGSDKIHHHHHHMYTFQPGDHLVTNIDPLGLTEHHGLYVGHGHVIHLSKQGIIEEINLQQFAGGHSVRVKKSTLFPHQAIELARSQLGHSPYGVATNNCEHFVNECLEGSSTSNQVSNLTHIALQGSARAGLLGSSASKLATGTVANVVLTSTAIKMTGEYLGLPDNVNTLLGTPGDLVAKPAECLLKGTSQTLGETYTCLRQGEMTGAGIKLVTGSIETGLNTVLTTAEVGINGVKAGAELIADAWHWLRS”, the “soluble on expression in E. coli” value is reported as “not soluble”. With “MGSDKIHHHHHHMYYPYWQLGGTPWYQPPVQQQAPPYFQLPPLYTGPYSSPYQTSLVPYLTRPLRTPETPQDRTRTIMRDLMTAIDGEHRAIQCYQQMAQHAPTKKEQQQIEEIITDEQRHLRTFSALYQQITEKQHEPTTDQKISHNYEKALAFAVEEEQKTVDFYLEVADHAPNLQIREAFQRAAKDEQNHAVWFLYFLTKRLTSKL” the “soluble on expression in E. coli” value was “not soluble”. For “MGSDKIHHHHHHMYYRKRFCVGRNNERRMKAMARDTGLDHLGAMRAFVRVVEMGSFSAVAKEMHVSTSTVARKITAIEEALGVALLHRSTHSVTLTEAGHIYLERAVTLIADLDDTLRVVAELNAQPSGPLKLTAPVAFGRRHLAPLIAPFLARYPTIQLDVRLTDNHNDLVAGGYDLDIHEGENYLDNLVVHRLSRNDSILCATPGYLDRCGRPATPDDLLHHNCLRYVHPEGDPRWELVRGDARHSVLPAGNLVTDHSELLLEATCAGLGIAEFEIWLVRDLLASGRLEAVLPRYRLHNKLTGEHIYIAYLANRRSSAKLRVLKDFLADQLAHIGELSEVELMKIRDAGA”, the “soluble on expression in E. coli” value was “not soluble”. For “MGSDKIHHHHHHSDDDDEKMVNPVPQTTFTGENGLQLTYNGAPMPGKKVTFTPDATNAQKATLRLEGEFDLNGILGKAKSAAAREDVSMPTAPGVLPGSPVVTLPVDLTINGDQCSFAGTSETDYCTFSYKGEVSAGAMELALSEVKLKNAKLAGMTWKLKPYNQEVEEQDPVRLVWESEKGIPLFGSFEMPVESVLKIALRMPLIAVGAENKVSATDMLGTVLKDVTFMEDGNIVATYKDAANGGTEWTKSPVNLAQYVVENDNQIKVFLNPAAIIAAVNNAGRAIDVQTVIQQAIQILYPMLVNGVPVAFEQTEDALSVYLNTELLLPLLKTLVVPLLSDEEVVAMLVELMKKDPDFGEMAGLAEPMLKAFPEIIESTTKVEIGLNFVK”, the “soluble on expression in E. coli” value was “not soluble”. With “MGSDKIHHHHHHSQTRYFADKKVSKSKNIVAADKVTDKEKETETWTSIPQRAVAYQELTTYEDSNLTKSVGKIPAKTQLDIPEIVGKSFKLKTGKYISTDKKAVISDLTISRESINTTIYTDKSVNVFYNPVTTYDNQIMTNLSGTHQLSADKMAKTNWGTYYEVSLDNGQKGWVSENDISLENPKIKQVQALLNQKYNDKKYSIYVKELDDKFTAGVNQEQKMYSASLSKIPILYWTQKRLNEGLASLDDKLLYTPAINTFYGSYKPEGTGNLPKTADNKYYSLQDVINRTAKLSDNVGSNMLAYYETQEFNPNYQKEINRIAGQEWNPKERNASAQMVGRMLEALYNEGGASFNALFDTSFDDVKIRAGVPKNISVAHKIGGADTDNHDAAIVFASKPYLLVIETDGATDDEIKAISQDVYGVMK” the “soluble on expression in E. coli” value was “not soluble”. With “MGSDKIHHHHHHVFKYMKKLLIVTTVPETLATILQSQPTFLNEEYEVFLASSTGIQQVADIENVRCFTINMYRGYSPFKDLFSIFKMFYLLLRIKPHIIHSYTPKAGLVCAIAAYFARVPHRIHTFTGLLFPTATGFKHLILKFTDKLVIYLNTHIVCEGYGVWRQFYRFGFSESKFEVIGNGNIAGVDLCYFDPDIVDLSVKSNLISSYKLEGCKVFLYVGRLNVDKGIKELVNAFINLNDNSKLLIVGALDTTAPPDDDTLLKIKVNPNIIDFGFLNDIRPIMSISSCLILPSYREGFPNVVLQAGAMELPCIVTDIPGCNEIISHDVNGWLVKPKCIDALESAMNDFLSLDNAKLLSVKKEASENIKTNFERSFYQKKLLNFYNKVLEND” the “soluble on expression in E. coli” value was “not soluble”. With “MGSDKIHHHHHHVKIILRKIRTLVTHPGFRANPIAVLGRCAALLGRVALGRPFVFSLTPAGERLRVDANLRYTTVTTFVMRDHLEPELHYLAHLLAPGDTFIDIGANVGVYSLRAATLVGAAGRVIAVEPGRDALTALRANLALNPGRTITVVAAALSDHIGTATLYHVGNGYDPQAFSLLSDETAKDAETVPLTTLDAVCADLAIDRLDCLKMDAEGVEPMVLAGGRATLERFHPAVILEMNTAILERRGSPTDQAWTFLAGLGYGFHRILGGRPVRLTAPPDDFCNVIATHPANEKIG” the “soluble on expression in E. coli” value was “not soluble”. For “MGSDKIHHHHHHVLADAVAWTARTLPVRPSVPVLAGMLLDADDVDGHQRLTLSSFDYEVSAQVSVDVDIDEPGRILVSGKLLAEIVRNLPPQTVEVSTDGAKVVVSCGSAKFTILTLPVEDYPTLPAMPALTGSVLSDTFAAAVSQVAVAAGRDDTLPMLTGVRIEIEGSTVTLVSTDRYRLAVRELTWTPEDPNVSAVALVPAKTLADTAKSLTGGAQISIALSTAENGGEGMIGFEGGGRRTTTRLLEGEFPKYRKLLPESFNSVAEVQKNEFIEAVKRVSLVAERNTPLRLSFTSDRLVLEAGTGEEAQAVEELSATLEGDDIQIAFNSTFLLDGLNAIESDVAHLQFTTSTKPAIITGKPADDGTASDYRYLIMPVRISN”, the “soluble on expression in E. coli” value was “not soluble”. In the case of “MGSDKIHHHHHHVLADSTGHGLSAAMPIMRVASTFRAMVSKGFSLATLIYELNSKVHRENPDDRFVACIVLEVDFYRKKIHIWNGGMPPVYIKNHLETETVSDHYPVKNIIKFKSTNMALGILPSQTFVADIATVDLPVVGHACLFSDGLIEQYTNENKPFGIETLNSLFIQYASELIPYLTENFKKVFDGKPITDDITVCTLDFERLNEWHQQNNICLARSNMDGEFDWEVKLAGPMLLSAEYLNSLNQFLGMFGFATSFCQRVFTVVAELFSNAIDHGVLKLDSRLKSDPDGFELYHSIRDSSSARLTMNDWVKVSLVWCSITNELHICVADSGQGFKGYKNTVVDIPQLSGRGLSLVKTLSKTYELVSPGNITKVIME”, the “soluble on expression in E. coli” value is reported as “not soluble”. In the case of “MGSDKIHHHHHHVPEQHICTYEYRLANPNPRPIVGRFQLNFTLDVNGCESGTPVLYLEHVQVHATVRYLKRGDLKLTLFSPSGTRSVLLPPRPQDFNANGFHKWPFLSVQQWGEDPRGTWLLMVESVTTNPAATGTFHDWTLLLYGTADPAQSGDPVYSATPATSQGVLSRVHQLTSQILITIAIHLVVNA”, the “soluble on expression in E. coli” value is reported as “not soluble”. In the case of “MGSDKIHHHHHHVSQLSPWQHYQQDLKRDDFSHDLAQEQAVTALQRVYEELIAATKPASGIAALLKAVTGKNKRASVQGLYLWGGVGRGKTYLMDTFFDALPTEDKLRAHFHRFMHQLHHDLGELKGVQDPLLTIAKKMAKQYQVICFDEFFVSDITDAMLLGTLFQALFKEGVVLVATSNIIPDELYKNGLQRARFLPAIALINQHCQILNVDSGIDYRLRTLEQAEIYHHPLDAQADVNLLQYFKQLAPESEVFTHALDIDGRKIAIRQQSQGVLLVDFRALCDGPRSQRDYMEIARLYHTVLLSGLVQMGAQQTGDDIARRFLAVVDEFYERNVKLIISAQVSLEQIYTQGQLDFEFRRCRSRLIEMQSHDYLALEHLP”, the “soluble on expression in E. coli” value is reported as “not soluble”. For “MGSDKIHHHHHHVSVDDLIDTTSLELLVAPAPLADFLRQSSAMHRHLCPRQVLGARMGMYAGELLGLTLPQKNKRLYTFVETDGCFADGVSVTTGCWLGRRTMRLMDEGKVAATFVDTQTGQAFRIAPRPNVRDLARQYAPNARSRWHAYLIAYQLMPLTDLLIAQPITLTVDLKAIISRNGLRTTCDHCGEEIINAREVIRDGQTLCRTCGGEGYYTITG”, the “soluble on expression in E. coli” value was “not soluble”. In the case of “MGSDKIHHHHHHVTFFERYSRVLFERYQGKVKYWLTFNEINGAQFMPMLSLGMAVREDENMLQSTYQGLHHQFVASSLATKAAREIDPTMQIGCMLIAAPVYPFSSNPVDVQFALEEERMMNYFCGDVHVRGAYPAFAGRFFSENNIELVVEDGDLELLRDYTVDFFSLSYYMSRTEKAEKDGNEAGGNIMSGVKNPYLKASDWGWEINPDGLRIILNKLYDRYQIPLFIVENGLGAYDEIIASNGATLTQTSVSK”, the “soluble on expression in E. coli” value is reported as “not soluble”. With “MGSDKIHHHHHHVTHKDMEYALDRVLAGSEKRSRSLVEEEREVVAYHEAGHALVGWMLEHTDALLKYEISIFRQKFRFPLKPLKSRRKVHFLREFLCNFPQRILENFKKIQKSYSKIQIFHQKFTQNIKKLKFPVLGEFLKFPANNSSEFLKNLKNFIKKIFFFEIFGPKLPQKVTIIPRTSAALGFAQYSPRDKHLFSKDELFDRMCMMLGGRCAENLKFGRATSGAQDDLQKVTKSAYAQVKLYGMSSIVGPLSFPNTEGFQIKPYSKKFASTFDQEATLIVAKANEATTDLIKNNMDKLETIAQALLKREVLNYEDVKKL” the “soluble on expression in E. coli” value was “not soluble”.
